Reference: patent US20180155451A1 (published 2018)

How the values were obtained:
[1] = target: T1, FcγRIIa H (human, UniProt P12318 34-217); experiment: SPR (Biacore), antibody captured on antigen-peptide chip, FcγR as analyte; binding relative to GpH7-A5/GpH7-B3/GpL16-k0 = 100
T1 construct: extracellular domain; also called FcgRIIa H type; 2aH
T1 sequence (looked up): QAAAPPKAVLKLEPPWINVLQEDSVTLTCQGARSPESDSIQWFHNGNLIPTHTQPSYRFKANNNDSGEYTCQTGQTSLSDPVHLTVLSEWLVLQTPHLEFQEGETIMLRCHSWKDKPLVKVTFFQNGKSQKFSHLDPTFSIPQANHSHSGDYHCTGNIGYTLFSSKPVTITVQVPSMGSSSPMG

[2] = target: T2, FcγRIIb (human, UniProt P31994 43-217); experiment: as above
T2 construct: extracellular domain; also called FcgRIIb; 2b
T2 sequence (looked up): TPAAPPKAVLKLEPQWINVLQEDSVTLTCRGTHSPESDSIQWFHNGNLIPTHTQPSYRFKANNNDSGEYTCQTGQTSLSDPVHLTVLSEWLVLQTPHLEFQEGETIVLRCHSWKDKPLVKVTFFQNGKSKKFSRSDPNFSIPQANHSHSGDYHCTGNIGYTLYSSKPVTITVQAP

[3] = target: T3, FcγRIIIa extracellular domain with C-terminal His tag (human, UniProt P08637 17-208); experiment: SPR; He/Con_3a divided by He/Con_2b (FcγRIIIa over FcγRIIb)
T3 construct: extracellular domain; also called FcgRIIIa; 3a; not shown: His tag at the C terminus
T3 sequence (P08637 17-208): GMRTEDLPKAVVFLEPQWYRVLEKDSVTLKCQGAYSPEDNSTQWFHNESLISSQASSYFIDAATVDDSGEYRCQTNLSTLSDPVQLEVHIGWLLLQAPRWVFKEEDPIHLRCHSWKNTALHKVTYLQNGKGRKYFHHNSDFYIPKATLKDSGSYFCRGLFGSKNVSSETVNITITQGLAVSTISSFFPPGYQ
Protocol: (§1) Analysis of interaction between objective antibody and the FcγR was carried out using Biacore T100 (GE Healthcare). HBS-EP+ (GE Healthcare) was used as the running buffer, and the measurement temperature was set to 25° C. Chips produced by immobilizing the antigen peptide by the amine coupling method to a Series S Sencor Chip CM5 (GE Healthcare), or alternatively, chips produced by allowing preliminarily biotinylated antigen peptides to interact with and immobilize onto a Series S Sensor Chip SA (certified) (GE Healthcare) were used. Antibodies of interest were captured onto an antigen peptide-immobilized chip, and allowed to interact to each FcγR diluted with running buffer. To regenerate and repeatedly use the chip, the antibodies captured on the chip were washed off by reacting 10 mM glycine-HCl, pH 1.5.
(§2) The FcγR-binding activity of each antibody was assessed primarily using as an indicator the FcγR-binding activity and dissociation constant for FcγR.

[4] = target: T4, FcγRIIb extracellular domain with C-terminal His tag (human, UniProt P31994 43-217); experiment: SPR (Biacore), antibody captured on antigen peptide chip, FcγR as analyte
T4 construct: extracellular domain; Soluble receptor expressed in FreeStyle293 cells, used as analyte in Biacore; also called FcgRIIb; 2b; not shown: His tag at the C terminus
T4 sequence (looked up): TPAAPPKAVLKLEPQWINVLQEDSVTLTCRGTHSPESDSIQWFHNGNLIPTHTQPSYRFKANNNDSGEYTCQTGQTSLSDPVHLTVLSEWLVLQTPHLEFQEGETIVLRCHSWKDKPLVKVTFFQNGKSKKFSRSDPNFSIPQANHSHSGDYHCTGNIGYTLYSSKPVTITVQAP
Protocol: as §1, §2

[5] = target: T3, FcγRIIIa extracellular domain with …; experiment: as above
Protocol: as §1, §2

[6] = target: T5, FcγRIa (human, UniProt P12314 16-292); experiment: SPR (Biacore), antibody captured, FcγR as analyte; binding as % of GpH7-A5/GpH7-B3/GpL16-k0
T5 construct: extracellular domain; also called FcgRI; 1a; not shown: His tag at the C terminus
T5 sequence (P12314 16-292): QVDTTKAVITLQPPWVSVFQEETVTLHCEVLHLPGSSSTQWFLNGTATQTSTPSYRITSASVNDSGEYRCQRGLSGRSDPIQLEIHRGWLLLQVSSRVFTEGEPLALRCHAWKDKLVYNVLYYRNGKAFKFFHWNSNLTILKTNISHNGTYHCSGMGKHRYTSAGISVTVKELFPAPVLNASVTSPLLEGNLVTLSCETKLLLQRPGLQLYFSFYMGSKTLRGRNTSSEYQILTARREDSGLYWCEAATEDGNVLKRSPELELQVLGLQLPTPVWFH

[7] = target: T6, FcγRIIb (human, UniProt P31994 43-217); experiment: as above
T6 construct: extracellular domain; also called FcgRIIb; 2b; not shown: His tag at the C terminus
T6 sequence (looked up): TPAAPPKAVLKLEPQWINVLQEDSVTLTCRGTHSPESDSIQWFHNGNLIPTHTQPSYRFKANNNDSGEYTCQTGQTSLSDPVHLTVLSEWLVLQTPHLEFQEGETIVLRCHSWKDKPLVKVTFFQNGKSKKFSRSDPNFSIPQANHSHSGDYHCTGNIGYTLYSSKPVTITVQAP

B1: GpH7-A5/GpH7-B3 variant T335_06M/GpL16-k0 (antibody, human IgG1, kappa)
heavy 1: not shown
heavy 2: not shown
light: DIVMTQSPLSLPVTPGEPASISCQASESLVHSNRNTYLHWYLQKPGQSPQLLIYKVSNRFSGVPDRFSGSGSGTDFTLKISRVEAEDVGVYYCSQNTHVPPTFGQGTKVEIERTVAAPSVFIFPPSDEQLKSGTASVVCLLNNFYPREAKVQWKVDNALQSGNSQESVTEQDSKDSTYSLSSTLTLSKADYEKHKVYACEVTHQGLSSPVTKSFNRGEC
notes: Heterodimerized anti-glypican-3 IgG1; substitution in only one H chain (the GpH7-B3 chain); also called He Ab
Question: What does the source list for B1?
Answer: He/Con_2aH [1]: 103 % of HeCon Ab; He/Con_2b [2]: 99.4 % of HeCon Ab

B2: GpH7-A5/GpH7-B3 variant T335_05P/GpL16-k0 (antibody, human IgG1, kappa)
heavy 1: not shown
heavy 2: not shown
light: DIVMTQSPLSLPVTPGEPASISCQASESLVHSNRNTYLHWYLQKPGQSPQLLIYKVSNRFSGVPDRFSGSGSGTDFTLKISRVEAEDVGVYYCSQNTHVPPTFGQGTKVEIERTVAAPSVFIFPPSDEQLKSGTASVVCLLNNFYPREAKVQWKVDNALQSGNSQESVTEQDSKDSTYSLSSTLTLSKADYEKHKVYACEVTHQGLSSPVTKSFNRGEC
notes: as for B1
Question: With B2 as the binder, how does the He/Con_2aH [1] read?
Answer: The He/Con_2aH was 108 % of HeCon Ab.

Question: What about the He/Con_2b [2] of the same binder?
Answer: The He/Con_2b was 99.9 % of HeCon Ab.

B3: GpH7-A5/GpH7-B3 variant I332_11K/GpL16-k0 (antibody, human IgG1, kappa)
heavy 1: not shown
heavy 2: not shown
light: DIVMTQSPLSLPVTPGEPASISCQASESLVHSNRNTYLHWYLQKPGQSPQLLIYKVSNRFSGVPDRFSGSGSGTDFTLKISRVEAEDVGVYYCSQNTHVPPTFGQGTKVEIERTVAAPSVFIFPPSDEQLKSGTASVVCLLNNFYPREAKVQWKVDNALQSGNSQESVTEQDSKDSTYSLSSTLTLSKADYEKHKVYACEVTHQGLSSPVTKSFNRGEC
notes: Heterodimerized anti-glypican-3 IgG1; I332K (EU) only in the GpH7-B3 chain; also called He Ab
Question: Which results are given for B3?
Answer: He_3a/2b (IIIa/IIb) [3]: 0.64 ratio; He/Con_2b [4]: 70.9 relative binding (GpH7-A5/GpH7-B3/GpL16-k0 = 100); He/Con_3a [5]: 45.1 relative binding (GpH7-A5/GpH7-B3/GpL16-k0 = 100)

B4: GpH7-A5/GpH7-B3 variant L328_06M/GpL16-k0 (antibody, human IgG1, kappa)
heavy 1: not shown
heavy 2: not shown
light: DIVMTQSPLSLPVTPGEPASISCQASESLVHSNRNTYLHWYLQKPGQSPQLLIYKVSNRFSGVPDRFSGSGSGTDFTLKISRVEAEDVGVYYCSQNTHVPPTFGQGTKVEIERTVAAPSVFIFPPSDEQLKSGTASVVCLLNNFYPREAKVQWKVDNALQSGNSQESVTEQDSKDSTYSLSSTLTLSKADYEKHKVYACEVTHQGLSSPVTKSFNRGEC
notes: Heterodimerized anti-glypican-3 IgG1; L328M (EU) only in the GpH7-B3 chain; also called He Ab
Question: B4 was tested. Which “He_3a/2b (IIIa/IIb)” value [3] did it give?
Answer: Its value is 0.56 ratio.

Question: What about the He/Con_2b [4] of the same binder?
Answer: Its He/Con_2b is 142 relative binding (GpH7-A5/GpH7-B3/GpL16-k0 = 100).

Question: What about the He/Con_3a [5] of the same binder?
Answer: The He/Con_3a was 78.6 relative binding (GpH7-A5/GpH7-B3/GpL16-k0 = 100).

B5: GpH7-A5/GpH7-B3 variant I332_15Y/GpL16-k0 (antibody, human IgG1, kappa)
heavy 1: not shown
heavy 2: not shown
light: DIVMTQSPLSLPVTPGEPASISCQASESLVHSNRNTYLHWYLQKPGQSPQLLIYKVSNRFSGVPDRFSGSGSGTDFTLKISRVEAEDVGVYYCSQNTHVPPTFGQGTKVEIERTVAAPSVFIFPPSDEQLKSGTASVVCLLNNFYPREAKVQWKVDNALQSGNSQESVTEQDSKDSTYSLSSTLTLSKADYEKHKVYACEVTHQGLSSPVTKSFNRGEC
notes: heterodimerized IgG1; alteration in the GpH7-B3 H chain only; also called He Ab
Question: How did the He/Con_1a [6] turn out when B5 was run?
Answer: The He/Con_1a was 88.8 % of control.

Question: What about the He/Con_2b [7] of the same binder?
Answer: The He/Con_2b was 101 % of control.

B6: GpH7-A5/GpH7-B3 variant I332_14T/GpL16-k0 (antibody, human IgG1, kappa)
heavy 1: not shown
heavy 2: not shown
light: DIVMTQSPLSLPVTPGEPASISCQASESLVHSNRNTYLHWYLQKPGQSPQLLIYKVSNRFSGVPDRFSGSGSGTDFTLKISRVEAEDVGVYYCSQNTHVPPTFGQGTKVEIERTVAAPSVFIFPPSDEQLKSGTASVVCLLNNFYPREAKVQWKVDNALQSGNSQESVTEQDSKDSTYSLSSTLTLSKADYEKHKVYACEVTHQGLSSPVTKSFNRGEC
notes: as for B5
Question: For B6, which He/Con_1a [6] is on record?
Answer: The He/Con_1a was 91.8 % of control.

Question: What about the He/Con_2b [7] of the same binder?
Answer: Its He/Con_2b is 106 % of control.

B7: GpH7-A5/GpH7-B3 variant I336_18N/GpL16-k0 (antibody, human IgG1, kappa)
heavy 1: not shown
heavy 2: not shown
light: DIVMTQSPLSLPVTPGEPASISCQASESLVHSNRNTYLHWYLQKPGQSPQLLIYKVSNRFSGVPDRFSGSGSGTDFTLKISRVEAEDVGVYYCSQNTHVPPTFGQGTKVEIERTVAAPSVFIFPPSDEQLKSGTASVVCLLNNFYPREAKVQWKVDNALQSGNSQESVTEQDSKDSTYSLSSTLTLSKADYEKHKVYACEVTHQGLSSPVTKSFNRGEC
notes: as for B1
Question: What does the source list for B7?
Answer: He/Con_2aH [1]: 103 % of HeCon Ab; He/Con_2b [2]: 97.6 % of HeCon Ab

B8: GpH7-A5/GpH7-B3 variant I336_10E/GpL16-k0 (antibody, human IgG1, kappa)
heavy 1: not shown
heavy 2: not shown
light: DIVMTQSPLSLPVTPGEPASISCQASESLVHSNRNTYLHWYLQKPGQSPQLLIYKVSNRFSGVPDRFSGSGSGTDFTLKISRVEAEDVGVYYCSQNTHVPPTFGQGTKVEIERTVAAPSVFIFPPSDEQLKSGTASVVCLLNNFYPREAKVQWKVDNALQSGNSQESVTEQDSKDSTYSLSSTLTLSKADYEKHKVYACEVTHQGLSSPVTKSFNRGEC
notes: as for B1
Question: With B8 as the binder, how does the He/Con_2aH [1] read?
Answer: The He/Con_2aH was 102 % of HeCon Ab.

Question: And the He/Con_2b [2]?
Answer: Its He/Con_2b is 89.8 % of HeCon Ab.
